Measurements reported in article PMC5443842, “The Effect of Two Amino acid Residue Substitutions via RNA Editing on Dark-operative Protochlorophyllide Oxidoreductase in the Black Pine Chloroplasts” (Scientific Reports, 2017).

Target: T1, Strep-ChlN from Leptolyngbya boryana, expressed in E. coli (Leptolyngbya boryana, UniProt Q04607 1-467)
T1 construct: ChlN, subunit of DPOR (NB protein), Leptolyngbya boryana; Co-expressed with each ChlB variant; To my knowledge pASK-IBA5plus adds an N-terminal Strep-tag II; source: E. coli (chlN-chlB fragments in pASK-IBA5plus), in soluble fraction
T1 sequence (Q04607 whole entry, the tested form may be a part): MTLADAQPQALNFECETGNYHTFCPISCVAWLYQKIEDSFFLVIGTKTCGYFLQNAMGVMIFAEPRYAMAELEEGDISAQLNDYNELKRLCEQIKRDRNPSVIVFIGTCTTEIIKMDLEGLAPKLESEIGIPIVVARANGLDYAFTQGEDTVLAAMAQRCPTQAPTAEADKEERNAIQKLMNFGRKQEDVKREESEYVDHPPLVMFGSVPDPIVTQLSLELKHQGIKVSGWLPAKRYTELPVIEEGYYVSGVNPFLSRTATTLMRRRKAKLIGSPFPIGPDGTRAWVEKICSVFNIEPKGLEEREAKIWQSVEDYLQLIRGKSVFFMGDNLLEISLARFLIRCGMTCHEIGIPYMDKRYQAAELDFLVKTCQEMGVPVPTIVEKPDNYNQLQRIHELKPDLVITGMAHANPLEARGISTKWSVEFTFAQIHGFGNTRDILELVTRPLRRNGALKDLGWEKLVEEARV
Assay: pull-down; ChlB variants co-expressed with Strep-ChlN in E. coli; soluble fractions on a Strep-Tactin column in an anaerobic chamber; affinity-purified proteins on SDS-PAGE stained with Coomassie Brilliant Blue, yields quantitated
Conditions: partners not purified

stoichiometry N: ~1
B1: wild-type ChlB from Leptolyngbya boryana, expressed in E. coli (natural protein, UniProt P95463 1-508, looked up)
chain: MKLAYWMYAGPAHIGTLRIASSFKNVHAIMHAPLGDDYFNVMRSMLERERDYTPVTTSVVDRHVLARGSQEKVVDNITRKDAEEHPDLIVLTPTCTSSILQEDLQNFVERAQLEAKGDVMLADVNHYRVNELQAADRTLQQIVQFYIAKARKQGNLVTEKTEKPSVNIFGMTTLGFHNNHDATELKKLMSDLGIEVNAIVPAGASVHELKSLPRAWFNLVPYRETGLLAAEFLQQEFNMPYVDITPIGIVETARCIRKIQQVINAQGANVDYEPFIDQQTRFVSQAAWFSRSIDCQNLTGKKAVVFGDNTHAAALTKILAREMGIHVLLAGTYCKYDEAWFREQVSEYCDDVLVSDDNGQIADAIARLEPAAIFGTQMERHVGKRLDIPCGVIAAPIHIQNFPVGYKPFVGYEGSNQIVDLIYNSFTLGMEDHLLEIFGGHDTKEVITKSVSADSDLNWSKDGLAELNRIPGFVRGKVKRNTEKFARDRNITQITAEVLYAAKEAVGA
notes: ChlB, subunit of DPOR (NB protein), Leptolyngbya boryana; also called WT ChlB; WT control; source: E. coli (pHANB2), in soluble fraction
